Test results: patent publication US8658382B2, “Proteins with pteridine glycosyltransferase activity and analysis method using the same” (Inje University Industry-Academic Cooperation Foundation, priority 2008, dated 2014)

How the values were obtained:
[1] = BGluT-catalysed glucosylation of tetrahydrobiopterin (establishing reaction conditions); type: biochemical
Experimental: Unless otherwise specified, the following standard reaction conditions were used for the determination of tetrahydrobiopterin and its oxidized forms. Reactions were carried out in a final volume of 100 μl, which consisted of 50 mM Tris-HCl (pH 7.5), 10 mM MgCl2, 0.05% ascorbic acid, 500 μM UDP-glucose, 1 μg of BGluT, and an aliquot of pteridines or tissue extracts. The reaction mixture was incubated for 20 minutes at 37° C. and then mixed with 30 μl of acidic iodine solution (2% KIM % I2 in 1 N HCl). After 1 hour in the dark at room temperature, the oxidized mixture was centrifuged. […]
The HPLC system consisted of Gilson 321 pump, Gilson 234 autoinjector, a fluorescence detector (Schimadzu RF-10AXL), and a system software (Gilson Unipoint version 5.11). […] Pteridines were eluted isocratically at a flow rate of 1.2 ml/min and monitored at 350/450 nm (excitation/emission). Pteridine peaks were identified and quantified using authentic pteridines, which were purchased from Dr. B. Schirck's Lab (Jona, Switzerland). […]
The results of FIG. 1 illustrate that a selective and quantitative analysis of tetrahydrobiopterin is possible using BGluT. In order to validate the possibility quantitatively, various studies were carried out to establish a standard reaction condition suitable for analysis of biological samples. […]

[2] = Storage stability of purified recombinant BGluT; type: physicochemical; conditions: in 20 mM Tris-HCl (pH 7.5), 30% (v/v) glycerol, aliquots at −70° C.
Description: According to the present inventor's article (Y. K. Choi, Y. K. Hwang, Y. S. Park, Molecular cloning and disruption of a novel gene encoding UDP-glucose:tetrahydrobiopterin alpha-glucosyltransferase gene in Synechococcus sp. PCC 7942. FEBS Lett. 502 (2001) 73-78), the BGluT gene cloned in pET-28a was overexpressed in Escherichia coli strain BL21(DE3). The recombinant BGluT was homogeneously purified with Ni-NTA column (Qiagen). Briefly, the transformed E. coli was induced to overexpress the protein with 0.3 mM isopropyl thiogalactoside (IPTG). After being incubated at 37° C. for 3 hours, the harvested cells were washed with lysis buffer (50 mM sodium phosphate (pH 8.0), 300 mM NaCl, 10 mM imidazole), resuspended in the same buffer, and disrupted by sonication. The crude extract obtained after centrifugation was applied to a column of Ni-NTA gel (Qiagen) and purified according to the product manual. The recombinant BGluT protein was eluted with 250 mM imidazole in the lysis buffer. The purified protein was dialyzed against 20 mM Tris-HCl (pH 7.5), mixed with glycerol to a concentration of 30% (v/v), and stored in aliquots at −70° C. until use. The protein was stable up to 4 months. Protein concentration was determined using Bradford reagent.

B1: BGluT: recombinant protein from a Synechococcus gene with pteridine glucosyltransferase activity (UDP-glucose:tetrahydrobiopterin glucosyltransferase) (protein)
chain: MTAHRFLFVSTPVGPLGSGRGGGVELTLPNLAKALTQRGHQVSVLAPAGSVLPDLPLETVPGTWQSTAQSHGRATPAEIPAESVLARLWDRAHQQQADFDLILNFAYDWLPLYLTPFFKTPVAHLISMGSLSEVMDQAIATSLDRYPGSIAVHSLAQAATFPFGDRCLCIGNALDLAAYGFNPEPEPVLGWVGRIAPEKGLEDAIQAAQQAGLPLRVWGALTEPDYWQRLQQQFGDRAVSYQGFVSTDELQRGLGRCQGLLMTPKWVEAFGNVAIEALACGLPVIAYARGGPLEIIEQGKSGWLVEPDQQAALVNAIGQLSSLDRAYCRAQAEARFSLAAMGQRLEAWLLPLLSRARGF
modifications: Synechococcus PCC7942
[1]; 100 μl reaction mixture, 1 μM tetrahydrobiopterin, 10 minutes, FIG. 2
  amount of BGluT above which the product is not increased any more: more than 1 μg
[1]; even in the presence of dihydrobiopterin, FIG. 1
  conversion of tetrahydrobiopterin to its glucosylated product: specifically convert only all of tetrahydrobiopterin to its glucosylated product
[2]
  time the protein was stable: up to 4 months
